Target: purified bovine brain tubulin (bovine) (UniProt Q6B856)
Experiment: co-sedimentation; constant Chro-CTD (10 µg) with 0.125–2.5 µM taxol-stabilized microtubules from bovine brain tubulin; bound fraction in pellets by densitometry of immunoblots; Kd from a Lineweaver-Burk plot; three independent experiments

- Kd: 230 nM
B1: Chro-CTD (329–926), COOH-terminal domain of Chromator, GST-fusion protein (domain or fragment)
chain: AMDAFKQWVNETVAGDGSSSPSSANEDESSTEQEWPPSSGAIKRKLNNTDSSLEGSGLNDSMDLEDLEEDLPSHTVKRLKNGGSSVQLNKPRIQSTEKQQTKINGNSTVVSPLTEQKMGEIIYTEDSTSSGMFRKPEMPNTINLKKEKPECPVRYLSRSEVGSSTRGVFRVENSEAPAPVSPAPVPQKVIAAPPAAGIAKRLPMARPAHSGANSPITVGQRQHALRTPGHGPVTAALHRRPGVGGASHVRQNLQQAPGRAHPGGRVLARAGVGTPQHRQQVQTPQGAKAVTPEQKILQLSKSGDLKVTRKVVTREELLAQRSAQARQRQALSQQQSSQQQKATPARQRIVSKSTIQPTPLQMELEEEIHQHQAQLCPITGKLIGQEETQLQMEQEQQQEQQREQLEAAAQALLGSDQQVLTNEDGSALLVRGEDGTVYQVAGKNAEGQTILVTQGPDGEQQFAYVAAAEGEDQDVLSLDHAVAEAVQAGEQVESHGVGAATADGEQILVSMTEEELAQHQVLQQAEASAAGTGTPPTAQIHITTSDSDGTESQIPAEVVQADLPSPGGTRRVVLLLQDGTFMMTEMHEDQFKTLNIPT
